Measured values from the supplement of paper PMC12855868.

B1: library; numbered along this chain (parent)
chain: MAAAGGARLLRAASAVLGGPAGRWLHHAGSRAGSSGLLRNRGPGGSAEASRSLSVSARARSSSEDKITVHFINRDGETLTTKGKVGDSLLDVVVENNLDIDGFGACEGTLACSTCHLIFEDHIYEKLDAITDEENDMLDLAYGLTDRSRLGCQICLTKSMDNMTVRVPETVADARQSIDVGKTS

Variants of: B1
Test: scaled log2 fold change in cell abundance, elesclomol vs control (0 = silent mean, 1 = nonsense mean) (scaled log2 ratio); higher = higher viability under elesclomol (loss of FDX1 cuproptosis function)
Conditions: glucose 10 mM
Protocol: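 Deep mutational scan of full-length human FDX1: a pooled saturation-mutagenesis ORF library (every residue 2-184 mutated to all 19 amino acids plus stop, and silent codons where available) was expressed by lentivirus in FDX1-knockout ABC1 (14 days) or HEK293T (11 days) cells grown with elesclomol (ES) or DMSO control. Variant abundance came from ORF sequencing. The log2 fold change (ES vs control, mean of duplicates) was centred on the silent-variant mean (0) and scaled to the nonsense-variant mean (1). Higher values mean greater viability under ES, i.e. loss of FDX1 function in cuproptosis.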

[1] = with ABC1 FDX1 KO, elesclomol 5 nM, 14 days
[2] = with HEK293T FDX1 KO, elesclomol 40 nM, 11 days
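Note: variant abundance is its share of total variant reads in each endpoint sample, from next-generation sequencing of the integrated ORF PCR-amplified out of genomic DNA.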

| Variant | scaled log2 fold change [1] | scaled log2 fold change [2] |
| --- | --- | --- |
| MAAAGGARLLRAASAVLGGWAGRWLHHAGSRAGSSGLLRNRGPGGSAEASRSLSVSARARSSSEDKITVHFINRDGETLTTKGKVGDSLLDVVVENNLDIDGFGACEGTLACSTCHLIFEDHIYEKLDAITDEENDMLDLAYGLTDRSRLGCQICLTKSMDNMTVRVPETVADARQSIDVGKTS [P20W] | -0.19 | -0.657 |
| MAAAGGARLLRAASAVLGGSAGRWLHHAGSRAGSSGLLRNRGPGGSAEASRSLSVSARARSSSEDKITVHFINRDGETLTTKGKVGDSLLDVVVENNLDIDGFGACEGTLACSTCHLIFEDHIYEKLDAITDEENDMLDLAYGLTDRSRLGCQICLTKSMDNMTVRVPETVADARQSIDVGKTS [P20S] | -0.324 |  |
| MAAAGGARLLRAASAVLGGLAGRWLHHAGSRAGSSGLLRNRGPGGSAEASRSLSVSARARSSSEDKITVHFINRDGETLTTKGKVGDSLLDVVVENNLDIDGFGACEGTLACSTCHLIFEDHIYEKLDAITDEENDMLDLAYGLTDRSRLGCQICLTKSMDNMTVRVPETVADARQSIDVGKTS [P20L] | 0.585 | -0.772 |
| MAAAGGARLLRAASAVLGGKAGRWLHHAGSRAGSSGLLRNRGPGGSAEASRSLSVSARARSSSEDKITVHFINRDGETLTTKGKVGDSLLDVVVENNLDIDGFGACEGTLACSTCHLIFEDHIYEKLDAITDEENDMLDLAYGLTDRSRLGCQICLTKSMDNMTVRVPETVADARQSIDVGKTS [P20K] | 0.251 |  |
| MAAAGGARLLRAASAVLGGGAGRWLHHAGSRAGSSGLLRNRGPGGSAEASRSLSVSARARSSSEDKITVHFINRDGETLTTKGKVGDSLLDVVVENNLDIDGFGACEGTLACSTCHLIFEDHIYEKLDAITDEENDMLDLAYGLTDRSRLGCQICLTKSMDNMTVRVPETVADARQSIDVGKTS [P20G] | 0.37 |  |
| MAAAGGARLLRAASAVLGGNAGRWLHHAGSRAGSSGLLRNRGPGGSAEASRSLSVSARARSSSEDKITVHFINRDGETLTTKGKVGDSLLDVVVENNLDIDGFGACEGTLACSTCHLIFEDHIYEKLDAITDEENDMLDLAYGLTDRSRLGCQICLTKSMDNMTVRVPETVADARQSIDVGKTS [P20N] | -0.129 |  |
| MAAAGGARLLRAASAVLGGHAGRWLHHAGSRAGSSGLLRNRGPGGSAEASRSLSVSARARSSSEDKITVHFINRDGETLTTKGKVGDSLLDVVVENNLDIDGFGACEGTLACSTCHLIFEDHIYEKLDAITDEENDMLDLAYGLTDRSRLGCQICLTKSMDNMTVRVPETVADARQSIDVGKTS [P20H] | -0.216 | 0.0304 |
| MAAAGGARLLRAASAVLGGMAGRWLHHAGSRAGSSGLLRNRGPGGSAEASRSLSVSARARSSSEDKITVHFINRDGETLTTKGKVGDSLLDVVVENNLDIDGFGACEGTLACSTCHLIFEDHIYEKLDAITDEENDMLDLAYGLTDRSRLGCQICLTKSMDNMTVRVPETVADARQSIDVGKTS [P20M] | -0.56 |  |
| MAAAGGARLLRAASAVLGGQAGRWLHHAGSRAGSSGLLRNRGPGGSAEASRSLSVSARARSSSEDKITVHFINRDGETLTTKGKVGDSLLDVVVENNLDIDGFGACEGTLACSTCHLIFEDHIYEKLDAITDEENDMLDLAYGLTDRSRLGCQICLTKSMDNMTVRVPETVADARQSIDVGKTS [P20Q] | -0.5 | 1.13 |
| MAAAGGARLLRAASAVLGGYAGRWLHHAGSRAGSSGLLRNRGPGGSAEASRSLSVSARARSSSEDKITVHFINRDGETLTTKGKVGDSLLDVVVENNLDIDGFGACEGTLACSTCHLIFEDHIYEKLDAITDEENDMLDLAYGLTDRSRLGCQICLTKSMDNMTVRVPETVADARQSIDVGKTS [P20Y] | 0.0978 | 0.987 |
| MAAAGGARLLRAASAVLGGFAGRWLHHAGSRAGSSGLLRNRGPGGSAEASRSLSVSARARSSSEDKITVHFINRDGETLTTKGKVGDSLLDVVVENNLDIDGFGACEGTLACSTCHLIFEDHIYEKLDAITDEENDMLDLAYGLTDRSRLGCQICLTKSMDNMTVRVPETVADARQSIDVGKTS [P20F] | -0.201 |  |
| MAAAGGARLLRAASAVLGGTAGRWLHHAGSRAGSSGLLRNRGPGGSAEASRSLSVSARARSSSEDKITVHFINRDGETLTTKGKVGDSLLDVVVENNLDIDGFGACEGTLACSTCHLIFEDHIYEKLDAITDEENDMLDLAYGLTDRSRLGCQICLTKSMDNMTVRVPETVADARQSIDVGKTS [P20T] | 0.221 |  |
| MAAAGGARLLRAASAVLGGIAGRWLHHAGSRAGSSGLLRNRGPGGSAEASRSLSVSARARSSSEDKITVHFINRDGETLTTKGKVGDSLLDVVVENNLDIDGFGACEGTLACSTCHLIFEDHIYEKLDAITDEENDMLDLAYGLTDRSRLGCQICLTKSMDNMTVRVPETVADARQSIDVGKTS [P20I] | 0.419 | 0.171 |
| MAAAGGARLLRAASAVLGGPCGRWLHHAGSRAGSSGLLRNRGPGGSAEASRSLSVSARARSSSEDKITVHFINRDGETLTTKGKVGDSLLDVVVENNLDIDGFGACEGTLACSTCHLIFEDHIYEKLDAITDEENDMLDLAYGLTDRSRLGCQICLTKSMDNMTVRVPETVADARQSIDVGKTS [A21C] | -0.145 | -0.0664 |
| MAAAGGARLLRAASAVLGGPHGRWLHHAGSRAGSSGLLRNRGPGGSAEASRSLSVSARARSSSEDKITVHFINRDGETLTTKGKVGDSLLDVVVENNLDIDGFGACEGTLACSTCHLIFEDHIYEKLDAITDEENDMLDLAYGLTDRSRLGCQICLTKSMDNMTVRVPETVADARQSIDVGKTS [A21H] | -0.455 | -0.00969 |
| MAAAGGARLLRAASAVLGGPIGRWLHHAGSRAGSSGLLRNRGPGGSAEASRSLSVSARARSSSEDKITVHFINRDGETLTTKGKVGDSLLDVVVENNLDIDGFGACEGTLACSTCHLIFEDHIYEKLDAITDEENDMLDLAYGLTDRSRLGCQICLTKSMDNMTVRVPETVADARQSIDVGKTS [A21I] | 0.0825 | 0.0632 |
| MAAAGGARLLRAASAVLGGPDGRWLHHAGSRAGSSGLLRNRGPGGSAEASRSLSVSARARSSSEDKITVHFINRDGETLTTKGKVGDSLLDVVVENNLDIDGFGACEGTLACSTCHLIFEDHIYEKLDAITDEENDMLDLAYGLTDRSRLGCQICLTKSMDNMTVRVPETVADARQSIDVGKTS [A21D] | 0.168 | -0.0523 |
| MAAAGGARLLRAASAVLGGPGGRWLHHAGSRAGSSGLLRNRGPGGSAEASRSLSVSARARSSSEDKITVHFINRDGETLTTKGKVGDSLLDVVVENNLDIDGFGACEGTLACSTCHLIFEDHIYEKLDAITDEENDMLDLAYGLTDRSRLGCQICLTKSMDNMTVRVPETVADARQSIDVGKTS [A21G] | 0.106 | -0.283 |
| MAAAGGARLLRAASAVLGGPFGRWLHHAGSRAGSSGLLRNRGPGGSAEASRSLSVSARARSSSEDKITVHFINRDGETLTTKGKVGDSLLDVVVENNLDIDGFGACEGTLACSTCHLIFEDHIYEKLDAITDEENDMLDLAYGLTDRSRLGCQICLTKSMDNMTVRVPETVADARQSIDVGKTS [A21F] | -0.268 | 0.113 |
| MAAAGGARLLRAASAVLGGPEGRWLHHAGSRAGSSGLLRNRGPGGSAEASRSLSVSARARSSSEDKITVHFINRDGETLTTKGKVGDSLLDVVVENNLDIDGFGACEGTLACSTCHLIFEDHIYEKLDAITDEENDMLDLAYGLTDRSRLGCQICLTKSMDNMTVRVPETVADARQSIDVGKTS [A21E] | -0.0483 | -0.444 |
